According to patent US20250011438A1 (INSTITUTE FOR BASIC SCIENCE, published 2025):
Positions count from the first letter of the chain named. Values belong to the binder of their own block, whether it stands above or below them.

What was measured:
[1] = target: T1, human Tie2 (hTie2), as immobilised in the Octet assay of Example 1.4 (human, UniProt Q02763 349-738, limits assumed); test: BLI (Octet), hTie2 immobilised on AR2G sensor, antibody as analyte, 1:1 global fit
T1 construct: The protein used was probably a soluble recombinant form, possibly hTie2-Ig3-FNIII(1-3)
Experimental: (§1) The affinity of mouse monoclonal antibody against hTie2 was measured using Octet® system (ForteBio) where Black 96-well plates (96 well F-type black plates, Greiner) were used. […] After the hydration, hTie2 was diluted in 10 mM sodium acetate, pH 6.0 buffer at a concentration of 10 μg/ml, fixed on AR2G biosensor, and blocked with 1M ethanolamine. The mouse monoclonal anti-Tie2 antibodies were diluted to 50, 25, 12.5, 6.25, 3.125, and 0 nM with 1× kinetic buffer, and subjected to association for 300 seconds and dissociation for 900 seconds.

[2] = target: T2, recombinant human Tie2 Ig3-FNIII(1-3) domains (human, UniProt Q02763 349-738); test: BLI (Octet), antibody immobilised on AR2G sensor, recombinant hTie2 as analyte, 1:1 global fit
T2 construct: also called hTie2-Ig3-FNIII(1-3)
Experimental: as §1, with “of humanized anti-Tie2” for “of mouse monoclonal”, “hydration, humanized anti-Tie2 antibody” for “hydration, hTie2”, “The recombinant hTie2 was” for “The mouse monoclonal anti-Tie2 antibodies were”, “300 sec” for “300 seconds”, “900 sec.” for “900 seconds.”

[3] = target: T2, recombinant human Tie2 Ig3-FNIII(1-3) …; test: stated in the HDX-MS sample preparation; how it was measured is not given; HDX-MS sample preparation; hTie2-Ig3-FNIII(1-3) fragment in deuterium labeling buffer; assay not given

T2 sequence (Q02763 349-738 limits assumed): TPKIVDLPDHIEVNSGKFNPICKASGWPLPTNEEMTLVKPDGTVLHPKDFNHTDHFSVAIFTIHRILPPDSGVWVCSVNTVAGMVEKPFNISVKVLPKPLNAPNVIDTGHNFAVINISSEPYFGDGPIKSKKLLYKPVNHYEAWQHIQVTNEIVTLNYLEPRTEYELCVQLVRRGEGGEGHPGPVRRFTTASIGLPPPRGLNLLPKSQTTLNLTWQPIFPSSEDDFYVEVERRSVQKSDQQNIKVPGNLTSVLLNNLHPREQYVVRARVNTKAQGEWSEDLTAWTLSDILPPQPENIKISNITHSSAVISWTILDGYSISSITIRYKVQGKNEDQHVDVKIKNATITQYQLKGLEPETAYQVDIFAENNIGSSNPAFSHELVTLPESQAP
T1 sequence (Q02763 349-738 limits assumed): as above

B2: mouse anti-Tie2 antibody 4A4 (antibody, V domains shown)
VH: QVQLQQPGAELVRPGASVKLSCKASGYSFTSYWMNWVKQRPGQGLEWIGMIHPSDSETRLNQKFKDKATLTVDKSSSTAYMQLSSPTSEDSAVYYCARGYYFDYWGQGTTLTVSS
VL: DIQMTQSPSSLSASLGERVSLTCRASQDIGISLNWLQQEPDGTIKRLIYATSSLDSGVPKRFTGSRSGSDYSLTISSLESEDFVDYYCLQYVSSPWTFGGGTKLEIK
Kd [1]: 0.105 nM | koff [1]: 5.53e-05 s⁻¹ | kon [1]: 525000 M⁻¹ s⁻¹

B6: humanized anti-Tie2 antibody 3H7H11G4 (antibody, V domains shown)
VH: QVQLVQSGAEVKKPGASVKVSCKASGYTFTSYWMNWVRQAPGQGLEWMGMIHPSDSETRLNQKFMDRVTMTRDTSTSTVYMELSSLRSEDTAVYYCARGLYGNSWGQGTLVTVSS
VL: DIQMTQSPSSLSASVGDRVTITCRASQDIGISLNWYQQKPGKAPKRLIYATSSLDSGVPSRFSGSGSGTEFTLTISSLQPEDFATYYCLQYASSPYTFGQGTKVEIK
Kd [2]: 7.47 nM | koff [2]: 0.000467 s⁻¹ | kon [2]: 62600 M⁻¹ s⁻¹

B7: humanized anti-Tie2 antibody 3H7H12G4 (antibody, V domains shown)
VH: B6 VH
VL: B6 VL with Y36L, K39E, S60K
Kd [2]: 96.5 nM | koff [2]: 0.000999 s⁻¹ | kon [2]: 10400 M⁻¹ s⁻¹

B8: humanized anti-Tie2 antibody 3H7H21G4 (antibody, V domains shown)
VH: B6 VH with A40R, M48I
VL: B6 VL
Kd [2]: 6.59 nM | koff [2]: 0.000517 s⁻¹ | kon [2]: 78500 M⁻¹ s⁻¹

Further lines, results first:

Kd [1]: 0.215 nM | koff [1]: 0.000327 s⁻¹ | kon [1]: 1.52e+06 M⁻¹ s⁻¹
B1: mouse anti-Tie2 antibody 11C4 (antibody, V domains shown)
VH: QVQLQQPGADLVRPGASVTLSCKASGYSFTSYWMNWVKQRPGQGLEWIGMIHPSDSETRLNQKFKDKATLTVDKSSSTAYMQLRSPTSEDSAVYYCAGLTIYFDYWGQGTTLTVSS
VL: B2 VL with T63S, V92A, W96Y

Kd [1]: 0.251 nM | koff [1]: 9.12e-05 s⁻¹ | kon [1]: 363000 M⁻¹ s⁻¹
B3: mouse anti-Tie2 antibody 3E12 (antibody, V domains shown)
VH: B2 VH with E10D, R98K, D103G
VL: B2 VL with S53N, T63S, V92A, W96P

Kd [1]: < 0.001 nM | koff [1]: < 1e-07 s⁻¹ | kon [1]: 444000 M⁻¹ s⁻¹
B4: mouse anti-Tie2 antibody 3B2 (antibody, V domains shown)
VH: B2 VH with M81L, Y100N, Y104C
VL: B2 VL with S53I, T63S, V92A

Kd [2]: 0.0269 nM | koff [2]: 1.05e-05 s⁻¹ | kon [2]: 558000 M⁻¹ s⁻¹ | Kd [3]: 25 nM | Kd [1]: 0.0556 nM | koff [1]: 2.13e-05 s⁻¹ | kon [1]: 384000 M⁻¹ s⁻¹
B5: mouse anti-Tie2 antibody 3H7 (antibody, V domains shown)
VH: B2 VH with K65M, Y100L, F102G, D103N, Y104S, T110L, L111V, S115A
VL: B2 VL with T63S, V92A, W96Y

Kd [2]: 39.7 nM | koff [2]: 0.000656 s⁻¹ | kon [2]: 16500 M⁻¹ s⁻¹
B9: humanized anti-Tie2 antibody 3H7H22G4 (antibody, V domains shown)
VH: B6 VH with A40R, M48I
VL: B6 VL with Y36L, K39E, S60K
